± gives the uncertainty stated by the source.
Experiment: amyloid nucleation score (Sup35N fusion, yeast selection) (log enrichment); library NNK2; higher = more nucleation; inactive = no reads after selection
Summary of the method: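 Peptides of 20 random codons fused to Sup35N were expressed in psi-negative yeast, induced 24 hours with 100 μM copper sulfate, then grown 7 days at 30°C on medium lacking adenine and uracil. Input and output plasmid inserts were Illumina-sequenced. Nucleation score is the DiMSum log enrichment of output over input reads, centred on the mode score of non-aggregating sequences, excluding sequences with under 100 input reads. Random libraries had three technical output replicates.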

Work on PLITDFLAGMLSPENVSVPQ yielded an amyloid nucleation score of 0.883 ± 0.51.

VVEFNVLHDDLEVQDKT showed an amyloid nucleation score of -1.16 ± 0.56.

For MRHSRHFVQYGWFDCGQSGS, the amyloid nucleation score was 1.02 ± 0.29.

For VFKFMNMTYEYRAGKGITVH, the amyloid nucleation score was “inactive”.

QRAYVPQTLGVRISVSSRWQ gave an amyloid nucleation score of 3.41 ± 0.096.

QFDMEQFVQCPGTMSSRAVG gave an amyloid nucleation score of 5.04 ± 0.059.

Work on VAGSS yielded an amyloid nucleation score of -0.101 ± 0.29.

For MELCYVILWYYIFSCGWWRS, the amyloid nucleation score was “inactive”.

Substance CVGGWWPRQRLFCIWFIIAV has an amyloid nucleation score of 1.72 ± 0.31.

Work on EVVLFF yielded an amyloid nucleation score of -1.35 ± 0.62.

Substance STTQEF has an amyloid nucleation score of 0.086 ± 0.32.

TNRGSQNGLMFFDRSWKGYG showed an amyloid nucleation score of -0.467 ± 0.5.

For YAFSMDRWVDLMLFQRV, the amyloid nucleation score was 4.96 ± 0.092.

For SNSVCACCKCWLGLSLPYQG, the amyloid nucleation score was 7.781 ± 0.046.

Substance FYSFLINVPQCPER has an amyloid nucleation score of 0.636 ± 0.81.

For NVVQMMSVEFMPMVHVSAIL, the amyloid nucleation score was 4.23 ± 0.063.

In the case of TAGFRILRRHFSIGVGSRTW, the amyloid nucleation score is reported as “inactive”.

With YSHGEVCCWSCVMWVKHFMR the amyloid nucleation score was 1.47 ± 0.33.

Work on GFQWLDAYLLGSFWMRMSTC yielded an amyloid nucleation score of 0.516 ± 0.81.

Substance LQMSGTSR has an amyloid nucleation score of 0.265 ± 1.1.

Work on NCYNMVYNCVPSEKAVKTCR yielded an amyloid nucleation score of 0.264 ± 0.32.

In the case of IFYCFGKLDA, the amyloid nucleation score is reported as 5.18 ± 0.072.

With ASQIDSLVRNRNCLNSTKIG the amyloid nucleation score was -0.23 ± 0.44.

In the case of AYMSITSSLYNCTRRPTGTC, the amyloid nucleation score is reported as -1.35 ± 0.38.

In the case of SDAVSSILSFYRVPRAVGPE, the amyloid nucleation score is reported as “inactive”.

For KRVFKLSESTTRVIMWGRYS, the amyloid nucleation score was “inactive”.

For NKAHINW, the amyloid nucleation score was 0.476 ± 0.6.

In the case of SDVSREVKV, the amyloid nucleation score is reported as -0.038 ± 0.37.

Substance MFDLQVRTWFWAF has an amyloid nucleation score of 3.03 ± 0.11.

Substance IKSRICISSYNNDMCGRFVL has an amyloid nucleation score of -1.86 ± 0.62.

For IFDRNSYFKEHFVMIGLEGR, the amyloid nucleation score was 0.228 ± 1.

TVAMSGASQYDEYVSESMMT showed an amyloid nucleation score of 0.061 ± 0.27.

With GIKHVCAWDIN the amyloid nucleation score was “inactive”.

With GYVFASSVD the amyloid nucleation score was 0.791 ± 0.81.

With FIYCVTFVDDCRYVINLRGT the amyloid nucleation score was 7.964 ± 0.079.

Work on FACNLGFMTSSFMRWSNTSA yielded an amyloid nucleation score of 0.356 ± 0.33.

TKEIVEGINTQLYRWTLFG gave an amyloid nucleation score of -0.429 ± 0.25.

In the case of VSDDHFINCFYGQVSQRKVK, the amyloid nucleation score is reported as “inactive”.

Work on RSYLVFYTRYLTFNGPSTKF yielded an amyloid nucleation score of 7.79 ± 0.08.

Work on DKFISLFKRGAHKDVQ yielded an amyloid nucleation score of -0.42 ± 0.76.

Work on ESLWMRTLMNVHYSDFRVTV yielded an amyloid nucleation score of -0.174 ± 0.22.

GQWRKGAYMVC gave an amyloid nucleation score of 0.477 ± 0.34.

Work on CNMFCFDCCLWFGGMRISST yielded an amyloid nucleation score of 8.315 ± 0.042.

VFLSGINH showed an amyloid nucleation score of -1.18 ± 1.1.

Substance CHVFTSSSTRSLWTSDIIPS has an amyloid nucleation score of 0.218 ± 0.48.

Substance NIFSWEAVEKARYAHSPLNN has an amyloid nucleation score of -1.44 ± 1.1.

LCRYFQN gave an amyloid nucleation score of 0.218 ± 0.8.

PVCCFAHMIIHYNCLGQKAY showed an amyloid nucleation score of 2.08 ± 0.12.

GGERYHPYYDAA showed an amyloid nucleation score of 0.268 ± 0.54.

YDANLRLYSYSRTQLFSSWS showed an amyloid nucleation score of 3.83 ± 0.088.

With LFAYYGWVFYMSIRCVHMGM the amyloid nucleation score was -0.583 ± 1.1.

Substance EEKDQRLISDSWGMF has an amyloid nucleation score of -0.013 ± 0.56.

LSHKAEYLCVFSWACRIMGL gave an amyloid nucleation score of 0.155 ± 0.42.

For HVKASGP, the amyloid nucleation score was 0.339 ± 0.35.

Work on RFMVFGNLYDERYTVRFLMR yielded an amyloid nucleation score of 3.66 ± 0.089.

For HWSAS, the amyloid nucleation score was 1.35 ± 0.47.

For YCYVSRVFYRMCALAGWMGL, the amyloid nucleation score was “inactive”.

IHDWKQSYVNVC gave an amyloid nucleation score of 0.084 ± 0.45.

In the case of FSKLVSIYFWGSGWWFCQWA, the amyloid nucleation score is reported as -0.532 ± 0.64.

SDNTLCLTGDSAYN gave an amyloid nucleation score of 0.307 ± 0.2.

GVIVCTWPRPRDCS showed an amyloid nucleation score of 0.72 ± 0.58.

For RNSMGTFSRWYPIMY, the amyloid nucleation score was -0.54 ± 0.48.

In the case of SPKTDDTTVMGELYVWLTLG, the amyloid nucleation score is reported as 8.338 ± 0.036.

Work on SFDVLL yielded an amyloid nucleation score of -0.568 ± 0.64.

Substance YMLTIRFICFGAVGHSDMHE has an amyloid nucleation score of 0.672 ± 0.18.

With GNLDDTSLYCLYSLVSSRCS the amyloid nucleation score was 0.373 ± 0.29.

In the case of NWHGSIFFIW, the amyloid nucleation score is reported as 5.708 ± 0.049.

Substance FLRWRDKWHG has an amyloid nucleation score of 0.861 ± 0.29.

Work on RYNESEVSISRETRNVVLTF yielded an amyloid nucleation score of 0.712 ± 0.26.

Work on RMFIVHSCSTWLTNNGLNHM yielded an amyloid nucleation score of 5.318 ± 0.036.

GYLVYFLCINRLACCSYLAT showed an amyloid nucleation score of 7.981 ± 0.065.

With NLRVSFGREDCL the amyloid nucleation score was -0.347 ± 0.55.

In the case of VFAMDYDVCDNSTCHKGV, the amyloid nucleation score is reported as -0.057 ± 0.21.

In the case of MHRLRYKATVFGLNNDDMPP, the amyloid nucleation score is reported as 0.841 ± 0.44.

For ASFQLELS, the amyloid nucleation score was 0.438 ± 0.38.

In the case of LDILIYLKILDISFGNESCM, the amyloid nucleation score is reported as 0.002 ± 0.17.

Substance VVVPDGFRNYEYGNSTLFVI has an amyloid nucleation score of -0.99 ± 1.1.

For LVDNLR, the amyloid nucleation score was -0.441 ± 1.1.

MNMFMCFNGHNKRIVVKSKL gave an amyloid nucleation score of 0.446 ± 0.42.

In the case of RVPGRDALSIASWLQSTGQV, the amyloid nucleation score is reported as 1.03 ± 0.21.

Work on MLALLCVNNWEGCYWYVGSV yielded an amyloid nucleation score of 6.827 ± 0.063.

Substance LSCNMFDPVGQWCCGKKVGA has an amyloid nucleation score of 1.07 ± 0.42.

Substance SLRYLHFGVDHLS has an amyloid nucleation score of 3.94 ± 0.055.

MIYSVMFNVNGACTYNCRII showed an amyloid nucleation score of 7.478 ± 0.055.

For ARFFLHFG, the amyloid nucleation score was 6.2 ± 0.074.

For ITTHMCYVFMWREIRAKDVD, the amyloid nucleation score was 0.484 ± 0.8.

With ARCMGFLSGGIHYRYLTAQM the amyloid nucleation score was “inactive”.

For SRFGGVSTHYLARSFVDVTM, the amyloid nucleation score was 0.039 ± 0.44.

Substance YYEIIWYTFQEKLSGCSSCS has an amyloid nucleation score of -2.02 ± 0.75.

For RFFADLTMDQFNIFGGLWQG, the amyloid nucleation score was 1.09 ± 0.3.

With HLLHGPFMSLGG the amyloid nucleation score was -0.973 ± 1.

Work on WKIQACVSYQQGAVRGVCVD yielded an amyloid nucleation score of 0.139 ± 0.34.

Substance LVLFCAFRVTLGFSQTLNSM has an amyloid nucleation score of -0.003 ± 0.8.

In the case of RTGAMPSR, the amyloid nucleation score is reported as 0.518 ± 0.51.

In the case of NILWSNLGRMCRQLFAVFWS, the amyloid nucleation score is reported as -0.738 ± 0.62.

Work on NPTWVRCYWHFWFTVNGFQY yielded an amyloid nucleation score of -1.17 ± 1.1.

HKGVLEINSRVETLRSSAVN gave an amyloid nucleation score of -0.545 ± 0.63.

Work on EESFYTTPLSVFCVNLRYIV yielded an amyloid nucleation score of -0.383 ± 1.1.

Work on TRDNST yielded an amyloid nucleation score of 0.32 ± 0.53.

With DGVSVPSCRLKRKAVIAGWL the amyloid nucleation score was 0.662 ± 0.4.

For GCISSVQD, the amyloid nucleation score was “inactive”.

Substance VVILS has an amyloid nucleation score of 1.28 ± 0.29.

CSYCFCCVH showed an amyloid nucleation score of 8.29 ± 0.065.

STGIGDNATFSYRISRYSVC showed an amyloid nucleation score of -0.492 ± 0.39.

Work on MCPDKARGTMVCTERTPRLM yielded an amyloid nucleation score of 0.793 ± 0.15.

For MSICANLVLWWLDL, the amyloid nucleation score was -0.607 ± 0.63.

Substance YHIWRYHATSSHTFARFSSV has an amyloid nucleation score of 1.62 ± 0.51.

For GLWVSHEVCIGCVF, the amyloid nucleation score was “inactive”.

DRLLHDTE showed an amyloid nucleation score of -0.866 ± 0.76.

With VVRVLLVWMFLLTLWHHLVN the amyloid nucleation score was -0.158 ± 0.34.

In the case of LFLCYFIRT, the amyloid nucleation score is reported as 2.17 ± 0.1.

NRSVCLYYFAQVYKCCSNAV showed an amyloid nucleation score of 3.42 ± 0.14.

With CYSILFSLKQIDRLLITLPR the amyloid nucleation score was -1.04 ± 0.5.

For IGDSVGSDWTSTFMCDSVCR, the amyloid nucleation score was -0.15 ± 0.42.

GVLQTARRFPVPEGN gave an amyloid nucleation score of 3.71 ± 0.12.

With RYIGGSLFFRYNIVGKRQGV the amyloid nucleation score was 3.81 ± 0.064.

WVGLHVR gave an amyloid nucleation score of 0.525 ± 0.36.

WFENNDESMGQEWNKHCTSV showed an amyloid nucleation score of 0.718 ± 0.24.

MMSSRILGVFDSSSTICVRH gave an amyloid nucleation score of -0.218 ± 0.38.

With FTKKFYWGYPWCYMVF the amyloid nucleation score was -0.229 ± 0.8.

In the case of ATYAGMFMEEMPEHYFVWGT, the amyloid nucleation score is reported as 0.356 ± 0.74.

With HQDRERTRVPSIILFSLFTY the amyloid nucleation score was 1.71 ± 0.17.

With IRNILWVLPKVVSDAFI the amyloid nucleation score was 0.325 ± 0.57.

For SRYFVVAGRSLNTCVNMCCV, the amyloid nucleation score was 4.78 ± 0.069.

Substance HHFNLPMKKGRFVSLGFSLV has an amyloid nucleation score of -0.623 ± 1.

Work on LGFMNCSLMHAGRVGPREHF yielded an amyloid nucleation score of 2.72 ± 0.13.

For VTSGGLEWSRD, the amyloid nucleation score was 3.11 ± 0.05.

Reference: the supplement of paper PMC12042874
